Positions count from the first letter of the chain named.

Assay [1] concerns the target SARS-CoV-2 NTD (SARS-CoV-2, UniProt P0DTC2 14-305).
Assay [2] concerns the target SARS-CoV-2 RBD (SARS-CoV-2, UniProt P0DTC2 319-541).

B1: 53182-4 (antibody, V domains shown)
VH: QITLEESGPTLVTPTQTLTLTCSFSGFSLDTIGVAVAWIRQPPGKALEWLGTVFWDYDKRYSPPLSSRLTVIKDTSQQYVVLRLTDVGPGDTATYYCARLLIEHDAFDIWGQGAVVIVSS
VL: DVVVTQSPVSLPATPGEPASISCRASQSLLHRNGKHYLHWYLQRPGQSPQLLIYLGSNRASGVPDRFSGSGSGTVFSLKISRVEAEDVGIYYCMQALHFPYTFGQGTKLDIK
B1: in assay [1], the affinity, expressed as Kd, was 2.28 nM.

B2: 5317-5 (antibody, V domains shown)
VH: QVQLVQSGAEVKKPGSSVKVSCKASGGTFSSYPITWVRQAPGQGFEWMGKIIPILGIADYAQSFQGRVTITADKSTTTAYMELSSLRSEDTAVYYCAREKGYSSSSSATYYLDFWGQGTLVTVSS
VL: QSVLTQPPSVSGAPGQRVTISCTGSNSNIGAGYDVHWYQQLPGTAPRLLIYRNSNRPSGVPDRFSGSKSGTAASLAISGLQAEDEADYYCQSYDSSLTALVFGGGTKLTVL
For the molecule B2, the dissociation constant (Kd) in assay [2] worked out at 0.0826 nM.

B3: 53182-9 (antibody, V domains shown)
VH: EVQLVESGGGLILPGGSLRLSCAASGVTVSSNYMNWVRQAPGKGLEWVSVIYSGGSTFYADSVKGRFTISRDNSKNTLYLQMNSLRAEDTAVYYCARGGWPSGDTFDIWGQGTMVTVSS
VL: DIQLTQSPSFLSASVGDRVTITCRASQGISSYLAWYQQKPGKAPKLLIYAASTLQSGVPSRFSGSGSGTEFTLTISSLQPEDFATYYCQQLNSYPEITFGPGTKVDIK
Molecule B3 displayed a Kd in assay [2] of 0.0475 nM.

B4: 53182-1 (antibody, V domains shown)
VH: B3 VH with L13Q, A23T, V27I, S31T, N35T, V50I, F58Y, E88D, A96T, Q111L
VL: B3 VL with A50G
In assay [2], B4 showed a Kd of 2.81 nM.

B5: 53181-1 (antibody, V domains shown)
VH: QVQLVQSGAEVKKPGASVKVSCKASGYTFTNYVLTWVRQAPGQGLEWMGWISAYNGSTNYAQNLQGRVTMTTDTSTSTAYMELRSLRSDDTAVYYCARDPASYYDFWSGYVDYYYYGMDVWGQGTTVTVSS
VL: ELVLTQSPGTLSLSPGERATLSCRASQSVSSSYLAWYQQKPGQAPRLLIYSASSRATGIPDRFSGSGSGTDFTLTISRLEPEDFAVYYCQQYGNSRLTFGPGTKVDIK
Consider B5, for which binding in assay [1] was put at a Kd of 1.17 nM.

B6: 53181-2 (antibody, V domains shown)
VH: B5 VH with N31S, V33S, L34I, T35N, N63K, F106L
VL: B5 VL with L2I, S51G, Q90H, Q91H, N94S
B6 registered a Kd in assay [1] of 31.3 nM.

B7: 53182-3 (antibody, V domains shown)
VH: EVHLVESGGGLVQPGGSLRLSCAASGFTVSSNYMSWVRQAPGKGLEWVSVIYSGGNTYYADSVKGRFTISRDNSKNTLYLQMNSLRAEDTAVYYCARDRRIIGYYFGMDVWGRGTTVTVSS
VL: QSALTQPASVSGSPGQSITISCTGTSSYVGSFDLVSWYQQHPGKAPKLMIYEVSKRPSGVSNRFSGSKSGNTASLTISGLQAEDEADYYCCPYADTWVFGGGTKLTVL
Consider B7, for which binding in assay [2] was put at a Kd of 8.32 nM.

B8: antibody 5317-4 (antibody, V domains shown)
VH: QVQLRLWGAGLLKPSETLSLTCAVSGGSFIDYYWTWIRQPPGKGLEWIGEINHFGGSGYNPSLKSRVSISVDTSKNQFSLRLNSVTAADTAIYYCARKPLLHSSVNPGAFDIWGQGTMLTVSS
VL: EIVLTQSPGTLSLSPGERAALSCRASQSVAGTYLAWYQQKPGQAPRLLIYGASSRATGIPDRFSGSGSGTDFTLTISRLEPEDFAVYYCQQYATSPRTFGQGTQLEIR
For B8, binding in assay [2] was put at a Kd of 1.78 nM.

B9: 5317-6 (antibody, V domains shown)
VH: QLQLQESGPGLVKPSETLSLTCTVSGASISSSSYYWGWIRQPPGKGLEWIGTMYYRGSTDYNPSLKSRVTISVDTSKNQFSLRLSSVTAADTAVYYCARRVPGDYYCLDVWGKGTTVTVSS
VL: DIQLTQSPSSLSASVGDRVTVTCRASQSISDYLNWYQQKPGKAPKLLIYAASSLQTGVPPRFSGSGSGTDFTLTISSLQPEDFATYYCQQSFSARVPTFGGGTKVESK
The molecule B9 gave a Kd in assay [2] of 1.66 nM.

B10: 53182-11 (antibody, V domains shown)
VH: EVQLVEFGGGLVQPGRSLRLSCATSGFTFEDFDMHWVRQAPGKGLEWVSGSTWNSGIIGYADSVKGRFTTSRDNAKNSLYMQMNNLREEDTALYYCAKDIGRYDHYNIFGRVGGAFDIWGQGTMVTVSS
VL: DIQMTQSPSSLSASVGDRVTISCQTSQDISVSLNWYQQKPGKPPKVLIYDASNLEAGAPSRFSGSGSGTDFTFTISSLQPEDIATYYCQHYDNLPRFGPGTKVDIK
Regarding B10, in assay [2], the dissociation constant (Kd) worked out at 3.18 nM.

B11: 5317-7 (antibody, V domains shown)
VH: EVQLVGSGGGLVQPGGSLRLSCAASGFTFSTYWMSWVRQAPGKGLEWVADIKQDGSEKYYVDSVKGRFTISRDNAKNSLYLQMNSLRVEDTALYYCARGGLWGTFDYWGQGTLVTVSS
VL: EIVLTQSPGTLSLSPGERASLSCRASQSVSSSYLAWYQQKPGQAPRLLIYGASSRATGIPDRFSGSGSGTDFTLTISRLEPEDFAVYWCQQFAYSLYTFGQGTKLEIK
In assay [2], B11 showed a Kd of 10.5 nM.

B12: 5317-3 (antibody, V domains shown)
VH: EVQLVESGGGLVQPGGSLRLSCSASGFTFSSYPMYWVRQAPGIGLEYVSGITDNGGSTYYGDSVKGRFTISRDNSKNTLNLQMNNLRTEDTAVYYCVKGKIQLWLGADYWGQGTLVTVSS
VL: DIQMTQSPSSLSASVGDRVTITCRANQTISSYLNWYQQKPGKAPKVLIFAASSLEGGVPSRFSGSGSGTDFTLTISSLQPEDFATYSCQQSYNTPWTFGQGTKVEIK
On to B12, for which binding in assay [2] was characterised by a dissociation constant (Kd) of 1.92 nM.

B13: 53182-8 (antibody, V domains shown)
VH: QLQLQESGPGLVKPSETLSLTCTVSGGSISSSSYYWGWIRQPPGKGLEWIGTIYYSGSTYYNPSLKSRVTISVDTSKTQFSLKLSSVTAADTAVYYCARDRRGGGWTASFDFWGQGTLVTVSS
VL: not shown
Take B13: in assay [2], binding was put at a Kd of 16.5 nM.

B14: 53182-6 (antibody, V domains shown)
VH: EVQLVESGGGLVQPGGSLRLSCAASGFTVSDNYMSWVRQAPGKGLQWVSVIYSGGNTYYADFVKGRFNITRDDSKNMLYLQMNSLRREDTAVYYCVRDRRIVGYYFGLDVWGQGTTVTVFS
VL: QSALTQPASVSGSPGQSITISCTGTSSDVRNYNLVSWYQQHPGKAPKLMIFEDSKRPSGVSNRFSGSKSGNTASLTIAGLQPEDEADYYCCSYATTWVFGGGTKVTVL
In assay [2], B14 displayed a Kd of 0.935 nM.

B15: 5317-1 (antibody, V domains shown)
VH: QMQLVQSGPEVKKPGTSVKVSCKASGFTFSTSVVQWVRQPRGQRLEWIGGIVVGRGNTKYAQNFQERVTITRDMSTSTAYMELSNLRSEDTAVYYCAADPFADYWGQGTLVTVSS
VL: not shown
B15 displayed a Kd in assay [2] of 0.0434 nM.

B16: 5317-2 (antibody, V domains shown)
VH: QVQLVQSGAEVKKPGSSVKVSCKVSGGTFSSYTIIWVRQAPGQGLEWMGRVIPVVHITHYAQRFRGRVTISADKSTSTAYMELSSLRSEDTAVYYCARGLWFGDSETVWFDPWGQGTLVTVSS
VL: DIQMTQSPSSLSASVGDRVTITCRASQNITYYLNWYQQKPGKAPNLLIYTASSLQSGVPSRFIGSGSGTDFTLTISSLQPEDFATYCCQQSYSTPPTFGQGTKVEIR
Turning to B16, the Kd in assay [2] was 1.95 nM.

(Values after patent publication US20240101646A1 (published 2024).)
